Patent US20230039165A1 (ENTHERA S R L, published 2023)
Residue numbers refer to the chain shown, from its start.

B1: M1 (antibody, V domains shown)
VH: QVQLQESGPGLVKPSETLSLTCTVSGGSISTYYWSWIRQPPGKGLEWIGYIYYSGSTNYNPSLKSRVTISVDTSKNQFSLKLSSVTAADTAVYYCARYDIVTGYPHYYYYVMDVWGQGTTVTVSS
VL: AIQMTQSPSSLSASVGDRVTITCRASRGIRNALGWYQQKPGTAPKLLIYAASSLQSGVPSRFSGSGSGTDFTLTISSLQPEDSATYYCLQDYNYPLTFGGGTKVEIK
notes: Only variable domains are tied to M1; also called anti-IGFBP3 mAb M1; Anti-IGFBP3 M1
B2: E14 (antibody, V domains shown)
VH: QVQLVQSGAEVKKPGASVKVSCKASGYTFSNYGISWVRQAPGQGLEWMGWINTYNGNTNYAQKLQGRVTMTTDTSTSTAYMALRGLRSDDTAVYYCARDRGYSSSPYYYYYGMDVWGQGTTVTVSS
VL: DIQMTQSPSSLSASIGDRVTITCRASQGISNYLAWFQQKPGKAPKSLIYAASSLQSGVPSKFSGSGSGTDFTLTISSLQPEDFATYYCQQYNSYPFTFGPGTKVDIK
notes: From Trianni Mouse hybridomas: chimeric mAb with human VH and VK and mouse constant domains; also called anti-IGFBP3 mAb E14
B3: E20 (antibody, V domains shown)
VH: B2 VH
VL: DIQMTQSPSSLSASVGDRVTITCRASQGIRNDLGWYQQKPGKAPKRLIYAASSLQSGVPSRFSGSGSGTEFTLTISSLQPEDFATYYCLQHNSYPYTFGQGTKLEIK
notes: From Trianni Mouse hybridomas: chimeric mAb with human VH and VK and mouse constant domains; also called anti-IGFBP3 mAb E20
B4: E24 (antibody, V domains shown)
VH: B2 VH with S30T, T53A, D73V, S75Y, A82E, G85S
VL: B1 VL with R18K, R27Q
notes: From Trianni Mouse hybridomas: chimeric mAb with human VH and VK and mouse constant domains; also called anti-IGFBP3 mAb E24
B5: E01 (antibody, V domains shown)
VH: QVQLVESGGGVVQPGRSLRLSCAASGFTFSSYGMHWVRQAPGKGLEWVAVISYDGSNKNYVDSVKGRFTISRDNSKNTLYLQMNSLRAEDTAVYYCARGGEYFYYYGLDVWGQGTTVTVSS
VL: EIVMTQSPATLSLSPGERATLSCRASQSVSSSSLSWYQQKPGQAPRLLIYGASTRATGIPARFSGSGSGTDFTLTISSLQPEDFAVYYCQQDYNLPLTFGGGTKVEIK
notes: From Trianni Mouse hybridomas: chimeric mAb with human VH and VK and mouse constant domains; also called anti-IGFBP3 mAb E01
B6: E19 (antibody, V domains shown)
VH: B5 VH
VL: AIQLTQSPSSLSASVGDRVTITCRAGQGISSALAWYQQKPGKAPKILIYDASSLESGVPSRFSGSGSGTDFTLTISSLQPEDFATYYCQQFNNYPSTFGQGTKLEIK
notes: From Trianni Mouse hybridomas: chimeric mAb with human VH and VK and mouse constant domains; also called anti-IGFBP3 mAb E19
B7: E02 (antibody, V domains shown)
VH: B2 VH
VL: B5 VL with S33H, P96T, L97I, G101Q, K104R, V105L
notes: From Trianni Mouse hybridomas: chimeric mAb with human VH and VK and mouse constant domains; also called anti-IGFBP3 mAb E02
B8: E08 (antibody, V domains shown)
VH: B2 VH
VL: B5 VL
notes: From Trianni Mouse hybridomas: chimeric mAb with human VH and VK and mouse constant domains; also called anti-IGFBP3 mAb E08
B9: Human Ecto-TMEM219 (receptor)
chain: THRTGLRSPDIPQDWVSFLRSFGQLTLCPRNGTVTGKWRGSHVVGLLTTLNFGDGPDRNKTRTFQATVLGSQMGLKGSSAGQLVLITARVTTERTAGTCLYFSAVPGILPSSQPPISCSEEGAGNATLSPRMGEECVSVWSHEGLVLTKLLTSEELALCGSR
notes: Produced in E. coli by Genescript; In the ELISA it was detected with anti 6x His tag HRP, so it probably carries a His tag; also called extracellular domain of the TMEM219 receptor

Each binder was assayed against T1, Recombinant human IGFBP3 (human, UniProt P17936 28-291) (assay: Octet BLI; mAb captured via Fc on anti-mouse/anti-human IgG Fc biosensor, human IGFBP3 at 150 nM).
T1 construct: also called rhIGFBP3; hIGFBP3
T1 sequence (P17936 28-291 limits assumed): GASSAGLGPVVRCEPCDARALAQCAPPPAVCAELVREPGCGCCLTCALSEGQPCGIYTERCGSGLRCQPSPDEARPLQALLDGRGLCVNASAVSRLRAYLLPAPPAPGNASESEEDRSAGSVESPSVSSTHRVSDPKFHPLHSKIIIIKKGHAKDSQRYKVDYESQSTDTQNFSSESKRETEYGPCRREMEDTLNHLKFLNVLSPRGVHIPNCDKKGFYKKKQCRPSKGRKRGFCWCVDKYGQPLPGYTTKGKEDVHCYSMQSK
Procedure: The binding affinity measurements were performed using an Octet instrument (Octet BMIA), which is a Biolayer Interferometry (BLI) platform based on Biomolecular Interaction Analysis.
In the case of B1, the Kd is reported as > 1 pM. Binder B2 has a Kd of 850 pM. Work on B3 yielded a Kd of 850 pM. For B4, the Kd was > 1 pM. B5 showed a Kd of 1200 pM. For B6, the Kd was 690 pM. B7 was tested, and the Kd was > 1 pM. In the case of B8, the Kd is reported as 610 pM.

The binders below were run against T1, Recombinant human IGFBP3 (assay: ELISA: plate coated with rhIGFBP3 4 µg/ml, His-tagged ecto-TMEM219 10 µg/ml added, detection with anti-HisTag HRP, absorbance).
Procedure: We also employed a blocking reagent solution (3% BSA in PBS) and a diluent solution (0.5% BSA, 0.05% Tw in PBS).
Plate was incubated 90 minutes at 37° C. and washed with PBS (300 μl/well) and incubated with the blocking reagent (200 μl/well) 2 hours at room temperature. […] After washing steps, plate was then incubated at room temperature for 1 hour with anti 6× His tag HRP diluted 1:2000 in Diluent solution (50 μl/well). ELISA plate was then read after adding visualization solution at ELISAreader and adsorbance was measured.
B9: binds.
